Common to all, as to experiment: cell-based or functional assay
One test concerns the target T1, GIP receptor, P48546.
T1 chain: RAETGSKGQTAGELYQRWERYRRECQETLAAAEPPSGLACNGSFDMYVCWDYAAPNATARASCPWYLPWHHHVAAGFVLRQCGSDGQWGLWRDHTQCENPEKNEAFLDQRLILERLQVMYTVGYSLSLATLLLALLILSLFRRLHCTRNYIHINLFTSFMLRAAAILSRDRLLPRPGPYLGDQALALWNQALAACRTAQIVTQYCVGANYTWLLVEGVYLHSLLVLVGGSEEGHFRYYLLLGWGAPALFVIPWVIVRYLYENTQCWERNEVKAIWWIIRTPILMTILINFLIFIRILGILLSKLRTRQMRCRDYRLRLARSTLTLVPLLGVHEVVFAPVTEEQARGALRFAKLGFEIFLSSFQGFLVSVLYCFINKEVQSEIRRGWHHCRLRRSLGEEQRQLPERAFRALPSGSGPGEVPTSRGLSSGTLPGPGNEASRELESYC

The next test deals with T2, GLP-1 receptor, P43220.
T2 chain: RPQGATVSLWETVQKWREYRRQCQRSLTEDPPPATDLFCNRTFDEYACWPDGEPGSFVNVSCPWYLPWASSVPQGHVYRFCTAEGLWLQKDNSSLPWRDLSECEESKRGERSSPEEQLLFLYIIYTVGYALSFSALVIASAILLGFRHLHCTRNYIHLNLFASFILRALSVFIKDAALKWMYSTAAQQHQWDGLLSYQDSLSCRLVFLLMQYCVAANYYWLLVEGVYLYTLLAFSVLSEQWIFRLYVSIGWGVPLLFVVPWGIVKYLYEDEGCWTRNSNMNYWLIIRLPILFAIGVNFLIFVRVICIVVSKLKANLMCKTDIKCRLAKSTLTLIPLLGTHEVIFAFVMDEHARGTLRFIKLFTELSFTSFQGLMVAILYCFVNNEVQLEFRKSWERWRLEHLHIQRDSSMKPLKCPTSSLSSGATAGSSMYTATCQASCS

The target in test [1] is glucagon receptor, P47871.
Sequence of glucagon receptor, P47871 (P47871 26-477 limits assumed): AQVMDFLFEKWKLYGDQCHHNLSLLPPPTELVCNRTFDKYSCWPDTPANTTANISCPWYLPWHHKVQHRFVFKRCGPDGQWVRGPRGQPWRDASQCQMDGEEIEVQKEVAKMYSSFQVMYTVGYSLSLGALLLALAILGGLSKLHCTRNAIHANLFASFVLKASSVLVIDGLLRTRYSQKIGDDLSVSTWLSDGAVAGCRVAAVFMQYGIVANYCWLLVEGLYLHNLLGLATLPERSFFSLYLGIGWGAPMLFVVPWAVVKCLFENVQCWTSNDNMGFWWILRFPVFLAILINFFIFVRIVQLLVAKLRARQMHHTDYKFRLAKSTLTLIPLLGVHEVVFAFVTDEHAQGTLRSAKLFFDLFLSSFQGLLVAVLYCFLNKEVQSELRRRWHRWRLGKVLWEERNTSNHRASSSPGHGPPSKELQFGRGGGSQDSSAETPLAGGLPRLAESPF

The source of these data is patent US20120172295A1.

Non-standard residues stand in square brackets, D forms with d. No end group written: not given here. *: point of attachment. Palmitoyl = CCCCCCCCCCCCCCCC(=O)*; Myristoyl = CCCCCCCCCCCCCC(=O)*; Aib = CC(C)(N)C(=O)O

Consider H[Aib]QGTFTSDYSKYLDEQAAKEFIC(PEG 40 kDa)WLMNGGPSSGAPPPSK(Myristoyl)-NH2 [mt-349], for which the % relative activity with GIP receptor, P48546 worked out at 0.18%; in the test with GLP-1 receptor, P43220, 286%; in test [1], 3.82%. In addition, the EC50 in the test with GIP receptor, P48546 was 1990 pM; with GLP-1 receptor, P43220 it was 2.2 pM; in test [1], 549 pM.

B1: mt-363 (peptide)
peptide: H[Aib]QGTFTSDYSKYLDEQAAKEFIAWLMNGGPSSGAPPPSK-NH2
modifications: N-terminus assumed
SMILES: CC[C@H](C)[C@H](NC(=O)[C@H](Cc1ccccc1)NC(=O)[C@H](CCC(=O)O)NC(=O)[C@H](CCCCN)NC(=O)[C@H](C)NC(=O)[C@H](C)NC(=O)[C@H](CCC(N)=O)NC(=O)[C@H](CCC(=O)O)NC(=O)[C@H](CC(=O)O)NC(=O)[C@H](CC(C)C)NC(=O)[C@H](Cc1ccc(O)cc1)NC(=O)[C@H](CCCCN)NC(=O)[C@H](CO)NC(=O)[C@H](Cc1ccc(O)cc1)NC(=O)[C@H](CC(=O)O)NC(=O)[C@H](CO)NC(=O)[C@@H](NC(=O)[C@H](Cc1ccccc1)NC(=O)[C@@H](NC(=O)CNC(=O)[C@H](CCC(N)=O)NC(=O)C(C)(C)NC(=O)[C@@H](N)Cc1c[nH]cn1)[C@@H](C)O)[C@@H](C)O)C(=O)N[C@@H](C)C(=O)N[C@@H](Cc1c[nH]c2ccccc12)C(=O)N[C@@H](CC(C)C)C(=O)N[C@@H](CCSC)C(=O)N[C@@H](CC(N)=O)C(=O)NCC(=O)NCC(=O)N1CCC[C@H]1C(=O)N[C@@H](CO)C(=O)N[C@@H](CO)C(=O)NCC(=O)N[C@@H](C)C(=O)N1CCC[C@H]1C(=O)N1CCC[C@H]1C(=O)N1CCC[C@H]1C(=O)N[C@@H](CO)C(=O)N[C@@H](CCCCN)C(N)=O
For the molecule B1, the % relative activity with GIP receptor, P48546 worked out at 0.73%; in the test with GLP-1 receptor, P43220 it was 672%; in test [1], 7.76%. The half-maximal effective concentration (EC50) with GIP receptor, P48546 was found to be 425 pM; with GLP-1 receptor, P43220 it was 3.7 pM; in test [1], 823 pM.

B2: mt-362 (peptide)
peptide: H[Aib]QGTFTSDYSIYLD[Aib]QAAKEFVNWLMNGGPSSGAPPPSK(Palmitoyl)-NH2
modifications: N-terminus assumed
SMILES: CCCCCCCCCCCCCCCC(=O)NCCCC[C@H](NC(=O)[C@H](CO)NC(=O)[C@@H]1CCCN1C(=O)[C@@H]1CCCN1C(=O)[C@@H]1CCCN1C(=O)[C@H](C)NC(=O)CNC(=O)[C@H](CO)NC(=O)[C@H](CO)NC(=O)[C@@H]1CCCN1C(=O)CNC(=O)CNC(=O)[C@H](CC(N)=O)NC(=O)[C@H](CCSC)NC(=O)[C@H](CC(C)C)NC(=O)[C@H](Cc1c[nH]c2ccccc12)NC(=O)[C@H](CC(N)=O)NC(=O)[C@@H](NC(=O)[C@H](Cc1ccccc1)NC(=O)[C@H](CCC(=O)O)NC(=O)[C@H](CCCCN)NC(=O)[C@H](C)NC(=O)[C@H](C)NC(=O)[C@H](CCC(N)=O)NC(=O)C(C)(C)NC(=O)[C@H](CC(=O)O)NC(=O)[C@H](CC(C)C)NC(=O)[C@H](Cc1ccc(O)cc1)NC(=O)[C@@H](NC(=O)[C@H](CO)NC(=O)[C@H](Cc1ccc(O)cc1)NC(=O)[C@H](CC(=O)O)NC(=O)[C@H](CO)NC(=O)[C@@H](NC(=O)[C@H](Cc1ccccc1)NC(=O)[C@@H](NC(=O)CNC(=O)[C@H](CCC(N)=O)NC(=O)C(C)(C)NC(=O)[C@@H](N)Cc1c[nH]cn1)[C@@H](C)O)[C@@H](C)O)[C@@H](C)CC)C(C)C)C(N)=O
In the case of B2, the % relative activity in the test with GIP receptor, P48546 came out at 3.95%; with GLP-1 receptor, P43220 it was 241%; in test [1] it was 83.2%. For the same molecule, the EC50 was 78.2 pM in the test with GIP receptor, P48546; 102 pM with GLP-1 receptor, P43220; 76.8 pM in test [1].

B3: mt-361 (peptide)
peptide: H[Aib]QGTFTSDYSIYLD[Aib]QAAKEFVNWLMNGGPSSGAPPPSK-NH2
modifications: N-terminus assumed
SMILES: CC[C@H](C)[C@H](NC(=O)[C@H](CO)NC(=O)[C@H](Cc1ccc(O)cc1)NC(=O)[C@H](CC(=O)O)NC(=O)[C@H](CO)NC(=O)[C@@H](NC(=O)[C@H](Cc1ccccc1)NC(=O)[C@@H](NC(=O)CNC(=O)[C@H](CCC(N)=O)NC(=O)C(C)(C)NC(=O)[C@@H](N)Cc1c[nH]cn1)[C@@H](C)O)[C@@H](C)O)C(=O)N[C@@H](Cc1ccc(O)cc1)C(=O)N[C@@H](CC(C)C)C(=O)N[C@@H](CC(=O)O)C(=O)NC(C)(C)C(=O)N[C@@H](CCC(N)=O)C(=O)N[C@@H](C)C(=O)N[C@@H](C)C(=O)N[C@@H](CCCCN)C(=O)N[C@@H](CCC(=O)O)C(=O)N[C@@H](Cc1ccccc1)C(=O)N[C@H](C(=O)N[C@@H](CC(N)=O)C(=O)N[C@@H](Cc1c[nH]c2ccccc12)C(=O)N[C@@H](CC(C)C)C(=O)N[C@@H](CCSC)C(=O)N[C@@H](CC(N)=O)C(=O)NCC(=O)NCC(=O)N1CCC[C@H]1C(=O)N[C@@H](CO)C(=O)N[C@@H](CO)C(=O)NCC(=O)N[C@@H](C)C(=O)N1CCC[C@H]1C(=O)N1CCC[C@H]1C(=O)N1CCC[C@H]1C(=O)N[C@@H](CO)C(=O)N[C@@H](CCCCN)C(N)=O)C(C)C
On to B3, for which the % relative activity is 0.29% in the test with GIP receptor, P48546; 226% in the test with GLP-1 receptor, P43220; 3.61% in test [1]. The EC50 with GIP receptor, P48546 came out at 1050 pM; in the test with GLP-1 receptor, P43220, 10.9 pM; in test [1], 1770 pM.

B4: mt-346 (peptide)
peptide: H[Aib]QGTFTSDYSKYLDEQAAKEFICWLMNGGPSSGAPPPSK-NH2
modifications: N-terminus assumed
SMILES: CC[C@H](C)[C@H](NC(=O)[C@H](Cc1ccccc1)NC(=O)[C@H](CCC(=O)O)NC(=O)[C@H](CCCCN)NC(=O)[C@H](C)NC(=O)[C@H](C)NC(=O)[C@H](CCC(N)=O)NC(=O)[C@H](CCC(=O)O)NC(=O)[C@H](CC(=O)O)NC(=O)[C@H](CC(C)C)NC(=O)[C@H](Cc1ccc(O)cc1)NC(=O)[C@H](CCCCN)NC(=O)[C@H](CO)NC(=O)[C@H](Cc1ccc(O)cc1)NC(=O)[C@H](CC(=O)O)NC(=O)[C@H](CO)NC(=O)[C@@H](NC(=O)[C@H](Cc1ccccc1)NC(=O)[C@@H](NC(=O)CNC(=O)[C@H](CCC(N)=O)NC(=O)C(C)(C)NC(=O)[C@@H](N)Cc1c[nH]cn1)[C@@H](C)O)[C@@H](C)O)C(=O)N[C@@H](CS)C(=O)N[C@@H](Cc1c[nH]c2ccccc12)C(=O)N[C@@H](CC(C)C)C(=O)N[C@@H](CCSC)C(=O)N[C@@H](CC(N)=O)C(=O)NCC(=O)NCC(=O)N1CCC[C@H]1C(=O)N[C@@H](CO)C(=O)N[C@@H](CO)C(=O)NCC(=O)N[C@@H](C)C(=O)N1CCC[C@H]1C(=O)N1CCC[C@H]1C(=O)N1CCC[C@H]1C(=O)N[C@@H](CO)C(=O)N[C@@H](CCCCN)C(N)=O
Regarding B4, the % relative activity with GIP receptor, P48546 was 0.34%; with GLP-1 receptor, P43220 it was 367%; in test [1], 3.7%. Besides, the EC50 with GIP receptor, P48546 came out at 796 pM; with GLP-1 receptor, P43220 it was 1.5 pM; in test [1], 954 pM.

A word on the EC50: it is the concentration needed to bring the measured effect to its halfway point. A higher EC50 goes with lower potency in that assay.
